Measured values from patent US11839630B2, “CAR-T cells targeting IL-1RAP and their use” (ETABLISSEMENT FRANCAIS DU SANG, priority 2017, dated 2023).

Tests used:
HSCs = test: IL-1RAP cell surface staining of healthy HSCs; type: binding, human
Experimental: FIG. 23: Effect of IL-1RAP CAR T cells on healthy hematopoietic cells and efficiency of the safety suicide gene iCASP9 cassette. (A) IL-1RAP cell surface expression on peripheral blood (left) or bone marrow (right) cells from healthy donors (n=5). SSC-A/CD45+ allowed discrimination of subpopulations as lymphocytes (SSC-A low), monocytes (CD33+), granulocytes (SSC-A high), or HSCs (CD33−/CD34+). RFI was calculated from isotype staining and provided in each window. (B) Representative (1 of 3) IL-1RAP staining of whole human cord blood cells. IL-1RAP staining is provided for whole CD34+, CD34+/CD38−, and CD34+/CD38+ HSC cord blood subpopulations. […] Percentages were calculated using absolute cell number determined using Trucount™ tubes based on 5000 fluorescent-bead cytometry acquisition. […] The quantification was performed after acquiring 5000 fluorescent beads. […] Cell killing was calculated as follows: % Dead cells=[1−(absolute number of viable cells in AP1903-treated cells/absolute number of viable cells in untreated cells)]×100. […] (G) Absolute quantification of IL-1RAP CAR T cells injected in a tumor (CML KU812, i.v.) xenograft NSG model 24 h after i.p. AP1903 (white bars) treatment (n=3 mice/group). […]

[1] = tested on: IL-1RAP+ leukemia expressing stem cells CD34+CD38+ or CD34+CD38-; test: Flow cytometry immunophenotyping of primary cells from CML patients; type: binding, human; settings: bone marrow or peripheral blood of patient at diagnosis or after 12 months of Imatinib
Description: FIG. 3: Immunophenotyping on peripheral blood (PM) or bone marrow (BM) of 2 CML positive patients at diagnosis (Diag) or after Imatinib (IM) treatment. IL-1RAP (#E3C3) was used in combination with CD34+ and CD38− fluorescent staining. Fluorochrome-conjugated isotype control mAbs from the different mAbs were systematically used.
Hematopoietic stem cells from CML patients were tracked using a panel of CD45, CD34, CD38, CD33, CD133, CD117 including murine Alexa Fluor® 488 labelled IL-1RAP antibody clone #E3C3. Transduced cells were stained using a panel of antibodies including CD3, CD4, CD8, and CD19 in order to differentiate helper or cytotoxic GMTC. Naïve, central or memory T cells subsets were analyzed using a panel of CD45RA, CD62L, CD95, CCR7 monoclonal antibodies. Cells were collected using a FACSCANTO™ II cytometer (BD Biosciences, Le Pont de Claix, France) and analyzed using the DIVA 6.1 software (BD Biosciences, Le Pont de Claix, France).
Immunophenotyping on peripheral blood or bone marrow of 2 CML-positive patients without or after Imatinib (TKI) treatment has been performed. IL-1RAP (#E3C3) was used in combination with CD34^+ and CD38^− fluorescent staining. Fluorochrome-conjugated isotype control monoclonal antibodies from the different monoclonal antibodies were systematically used.

B1: #E3C3: mouse anti-hIL-1RAP monoclonal antibody subclone generated by standard hybridoma technique; VH SEQ ID NO: 2, VL SEQ ID NO: 4 (antibody, V domains shown)
VH: MGWSCIILFLVATATGVNSQVQLQQPGAELMMPGASVKVSCEASGYTFTDSWMHWVKQRPGQGLEWIGAIDPSDSYTTYNQKFTGKATLSVDESSNTAYMQLSSLTSEDSAVYYCARYYSGSNYISPFPYWGQGTLVTVSA
VL: MESQIQVFVFVFLWLSGVDGDIVMTQSHKFMSTSVGDRVTITCKASLDVSTAVAWYQQKPGQSPKLLIYSASYRYTGVPDRFTGSGSGTDFTFTISSVQAEDLAVYYCQQHYSPPFTFGSGTNLEIK
modifications: Amino acid sequence of chain H (VH) of murine scFv anti-IL-1RAP; Amino acid sequence of chain K (VL) of murine scFv anti-IL-1RAP
detection of HSCs (HSCs; bone marrow from healthy donors or normal cord blood): did not detect | RFI of HSC staining (HSCs; bone marrow from healthy donors, n=5): < 1.2 | discrimination of IL-1RAP+ stem cell subpopulations [1]: allowed to discriminate IL-1RAP+ leukemia expressing stem cells
